Laboratory results: patent US6610494B2, “Solid-phase activity assay for biologically active substance” (priority 1996, dated 2003)
Values belong to the molecule of their own block, whether it stands above or below them.

Legend:
[1] = ELSA: hydrolysis of plate-bound biotinylated β-glucan by enzymes; format: biochemical; conditions: for Relative activity compared to lichenase (mean ± SD, n = 12): enzymes diluted to 5 U/mL per manufacturer values, 0.2 biotin-glucan diluted 1 to 50,000, hydrolysis 15 min, 22° C.
Method: Preparation of biotin-glucan conjugates. The technique is based on the principle that active aldehyde groups which is generated after sodium periodate oxidation of the hydroxyl group of the polysaccharide moiety, reacts with ethylenediamine to form an aminated polysaccharide. The Schiff bases that are formed are stabilized by reaction with sodium borohydride (Wong, 1991). The amine groups can then be conjugated to biotin using BNHS. In brief, 75 mg β-glucan was dissolved in 2 mL distilled water and 0.1 mL of 100 mM NaIO4 was then added. The reaction was protected from light and mixed for 0.5 hours at room temperature. The reaction mixture was treated with 1 mL ethylenediamine for 2 hours and unreacted reagents were removed by ethanol precipitation. This involved the addition of 8 mL of 95% (V/V) ethanol to the reaction mixture (3 mL), followed by mixing of the sample, centrifugation at 10000 g for 10 minutes at 0° C. and dissolving the pellet in 2 mL of distilled water. The preparations was washed three times. The washed precipitate was then dissolved in 2 mL distilled water, 5 mg of sodium borohydride were added and the reaction was allowed to proceed for 4 hours at 4° C. The washing steps as indicated above were repeated three times. The biotin ester (BNHS, 15 mg or 0.15 mg) was dissolved in 0.2 mL DMSO, the mixture was allowed to react at room temperature for 3 hours followed by three ethanol precipitations as described above. The final precipitate was dissolved in 3 mL distilled water, divided into aliquots and each aliquot of the BNHS-β-glucan complex was store frozen at […] in sealed polypropylene containers. The ratio of BNHS to β-glucan were 0.2 and 0.002 for the complexes that were synthesized from 15 mg or 0.15 mg BNHS and 75 mg β-glucan, respectively.
The microtitre plates were directly coated with 0.1 mL/well of the biotin-glucan complex diluted in 0.05 M carbonate-bicarbonate buffer (pH=9.6), and then left at room temperature for 1 hr and overnight at […] The usual dilutions of the 0.2 and 0.002 stock biotin-glucan complex were 50,000 and 100 fold, respectively. The plates were washed 3 times with PBS-T buffer and the emptied plates were stored in sealed containers at 0° C. for up to several months.
Test procedures. β-Glucanase (lichenase) was diluted with 20 mM sodium phosphate buffer (pH 6.5) to the desired concentration. The enzyme (100 μL) was added to each well in the biotin-glucan coated microtiter plate, the plate was sealed with a low evaporation lid, and the mixture was incubated for the desired period of time (from 1 to 30 minutes) and at the desired temperature (usually 22-24° C.). The reaction was stopped by emptying the plates followed by washing of the wells three times with pH 7.2 PBS-T. Blanks contained the incubation buffer without enzyme. Alkaline phosphatase-streptavidin (100 μg) diluted 1:1000 in pH 7.2 PBS was added to each well and incubated for 30 minutes at room temperature. The plates were washed six times with pH 7.2 PBS-T and dried at ambient temperature for approximately 10 to 20 minutes. Alkaline phosphatase substrate solution was then added to each well (100 μL) and the microtiter plates were incubated at room temperature for 30 minutes, or until absorbency of the well with no enzyme yielded a value of from 1.5 to 2.0 optical density units. The plates were read at 405 nm using a microtiter plate reader (Bio-Rad Laboratories Ltd., Mississauga, ON, Canada, Model 450).
Other procedures The method for preparing the arabinoxylan substrate was the same as used for β-glucan except the substrate was arabinoxylan rather than β-glucan. The BNHS to arabinoxylan ratio was 0.2 with the stock substrate being diluted 10,000 fold prior to being coated on the plate. The azo-barley-glucan method for the assay of β-glucanase was according to the procedure described by McCleary and Shameer (1987). The precision of the assay was studied using three concentration of enzyme (0.076, 2.1 and 160 mU)/well. […]

trypsin (EC 3.4.21.4) = assay: BEISA: competition of inhibitors or other substances for biotinylated trypsin against coated ovomucoid; format: binding
Method: Methods: NHS-biotin solution (5.5 mg in 200 ul dimethyl sulfoxide) and trypsin solution (15 mg in 1000 ul PBS) were mixed and reacted at room temperature for 3 hours with gently shaking. The unconjugated biotin was removed at 4° C. using minicon-15 concentrator (Amicon. Co.). The final volume was 1000 ul.
The 96-well microtiter plate (Falcon 3911) was coated with trypsin egg white inhibitor (ovomucoid, 4 ug/100 ul/well) at 370° C. overnight. The plate was washed once using PBST {[PBS, NaCl, 9.00; Na2HPO4, 1.15; NaH2PO4, 0.23 (g/l) pH 7.2] plus 0.05% Tween-20} and 200 ul of 5% skim milk was added to each well of the plate followed by incubation at 37° C. for 2 hours. The plate was rinsed twice with PBST and 50 ul of PBS was added to each well of the plate except for those in column one where 100 ul of PBS was added. Unlabelled trypsin (50 ul of 400 ug/ml) was added to the wells of the second column followed by successive double dilutions of trypsin in wells up to and including those in column 11. Biotinylated trypsin in PBS (50 ul of 1:3000 dilution of the stock to yield approximately 2 ug/100 ul/well) was added to each well except those in the first column followed by incubation at 37° C. for 1 hour. The final volume in each well was 100 ul. The blank set of wells with no trypsin (column 1) served as the negative control while the last set of wells (column 12) with biotinylated trypsin but no unlabelled trypsin served as the positive control. The plate was then washed three times with PBST and 100 ul of streptavidin-alkaline phosphatase (1:1000 in 50 mM bicarbonate buffer, pH 9.5) was added to each well of the plate and the plate was incubated at room temperature for 30 minutes. The plate was washed five times using PBST and 100 ul/well of p-nitrophenyl phosphate substrate (1 mg/ml in 10% diethanolamine buffer, pH 9.8) was added to the plate followed by incubation at ambient temperature for about 30 minutes. The absorbency was then read at 405 nm using a microplate reader (Bio-Rad laboratories Inc. Mississauga, ON, Canada, model 450). […]

biotinylated α-casein = assay: Solid phase protease activity assay using biotinylated casein; format: biochemical
Method: Preparation of biotinylated casein: 12 mg α-casein in 1 ml of 0.1 M pH 7.2 phosphate-buffer saline [PBS, NaCl, 9.00; Na2HPO4, 1.15; NaH2PO4, 0.23 (g/l)] was allowed to react with 3.6 mg NHS-biotin in 150 ul DMSO for 2 hours at room temperature with gently shaking.
Assay procedure for protease activity using biotinylated casein: The microtitre plates except for the first column of 8 wells were coated using biotinylated α-casein in PBS (0.13 ug/well/100 ul) and incubated for 2 hours at 37° C. The plates were washed three times with 0.1 M PBST (PBS with 0.05% Tween-20). Different concentrations of the enzyme solution as indicated in FIGS. 12-14 (100 ul) were diluted with the appropriate buffer (see Table 2). They were added in triplicate to the wells of a plate followed by incubating in a humid atmosphere at 37° C. for 30 minutes. The plate was washed three times using PBST to terminate the protease reaction. A streptavidin-alkaline phosphatase solution (100 ul/well, 1:1000 dilution in bicarbonate buffer pH 9.5) was added to all wells in the plate except for the first column of 8 wells (as blank) and the plate was incubated at room temperature for 30 minutes. The blank set of wells contained only PBS, no added enzyme and no coating with biotinylated casein. The reaction was stopped by emptying and washing the plate six times with PBST. The pNPP substrate (100 ul/well, 1 mg/ml in 10% diethanolamine buffer pH9.8) was added to each well of the plate followed by incubation at room temperature for about 20 minutes. The absorbency was then read at 405 nm using a microplate reader (Bio-Rad laboratories, Ltd, Mississauga, ON, Canada; model 450). The best sensitivity was obtained when the maximum absorbency was around 2.0 optical density units.

[2] = molecular target: T1, trypsin egg white inhibitor (ovomucoid) (Gallus gallus, UniProt P01005); assay: BEISA: competition of unlabelled proteases with biotinylated trypsin for coated inhibitor; format: binding; conditions: ovomucoid-coated plate
T1 construct: purchased Sigma Chemical Co. or Fisher Scientific Co
T1 sequence (P01005 25-210): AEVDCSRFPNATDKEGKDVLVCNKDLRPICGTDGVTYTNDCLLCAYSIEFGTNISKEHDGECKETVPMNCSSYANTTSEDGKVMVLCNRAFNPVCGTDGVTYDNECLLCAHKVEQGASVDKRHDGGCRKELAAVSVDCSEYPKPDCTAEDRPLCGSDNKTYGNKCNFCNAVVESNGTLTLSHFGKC
Method: The 96-well microtiter plate (Falcon 3911) was coated with trypsin egg white inhibitor (ovomucoid, 4 ug/100 ul/well) at […] overnight. The plate was washed once using PBST {[PBS, NaCl, 9.00; Na2HPO4, 1.15; NaH2PO4, 0.23 (g/l) pH 7.2] plus 0.05% Tween-20} and 200 ul of 5% skim milk was added to each well of the plate followed by incubation at 37° C. for 2 hours. The plate was rinsed twice with PBST and 50 ul of PBS was added to each well of the plate except for those in column one where 100 ul of PBS was added. Unlabelled trypsin (50 ul of 400 ug/ml) was added to the wells of the second column followed by successive double dilutions of trypsin in wells up to and including those in column 11. Biotinylated trypsin in PBS (50 ul of 1:3000 dilution of the stock to yield approximately 2 ug/100 ul/well) was added to each well except those in the first column followed by incubation at 37° C. for 1 hour. The final volume in each well was 100 ul. The blank set of wells with no trypsin (column 1) served as the negative control while the last set of wells (column 12) with biotinylated trypsin but no unlabelled trypsin served as the positive control. […] The absorbency was then read at 405 nm using a microplate reader (Bio-Rad laboratories Inc. Mississauga, ON, Canada, model 450). […]

β-glucanase (lichenase) = molecular target: T2, β-glucanase (lichenase) (Bacillus subtilis, UniProt P04957); assay: Influence of exogenous β-glucan on β-glucanase activity in the ELSA; format: biochemical; conditions: 0.5 mU β-glucanase/well; 22° C., 15 minutes
T2 construct: purchased Megazyme Pty.Ltd. batch MLI 82001
Excerpt: (§1) Other procedures The method for preparing the arabinoxylan substrate was the same as used for β-glucan except the substrate was arabinoxylan rather than β-glucan. The BNHS to arabinoxylan ratio was 0.2 with the stock substrate being diluted 10,000 fold prior to being coated on the plate. The azo-barley-glucan method for the assay of β-glucanase was according to the procedure described by McCleary and Shameer (1987). The precision of the assay was studied using three concentration of enzyme (0.076, 2.1 and 160 mU)/well. They were added (100 μl) to wells containing the 0.2 biotin-β-glucan diluted 1 to 50,000 and the mixture was incubated for 15 minutes at 22° C. Other procedures were as described above. The assay within the same titer plate was replicated 8 times. The entire assay was replicated 6 times. In the study on the effects that β-glucan had on enzyme activity, β-glucan (5.12 mg/mL) in 20 mM sodium phosphate buffer (pH6.5) was mixed with an equal volume of 0.2 U/mL of β-glucanase and hydrolysed at 40° C. for 60 minutes. The reaction was stopped by putting the enzyme solution in a boiling water bath for 15 minutes. The control sample contained β-glucan but was not incubated with enzyme and was not subjected to boiling. […]

[3] = Azo-barley glucan method for β-glucanase; format: biochemical
Excerpt: as §1

[4] = ELSA for xylanase using biotin-arabinoxylan complex; format: biochemical
Excerpt: as §1

[5] = optimal pH of each protease, 37° C., 30 minutes

Molecule: 1,4-β-D-glucan-4-glucanohydrolase [Cellulase]
Relative activity compared to lichenase (mean ± SD, n = 12) [1]: 101 ± 7

Interference with the binding of labelled trypsin to trypsin inhibitor (trypsin (EC 3.4.21.4)): did not interfere
Molecule: CC(C)C[C@H](NC(=O)N[C@H](C(=O)N[C@@H](CCC(N)=O)C(=O)N[C@@H](C)C=O)[C@@H]1CCNC(=N)N1)C(=O)O [elastatinal]

Molecule: CC(=O)N[C@@H](CC(C)C)C(=O)N[C@@H](CC(C)C)C(=O)N[C@H](C=O)CCCNC(=N)N [leupeptin]
Concentration of inhibitor that could be detected (trypsin (EC 3.4.21.4); ovomucoid-coated plate 4 ug/100 ul/well, biotinylated trypsin about 2 ug/100 ul/well): 0.03 to 1 µg/mL

Molecule: amylopectin 6-glycohydrolase [Pullulanase]
Relative activity compared to lichenase (mean ± SD, n = 12) [1]: 1.8 ± 0.1

Interference with the binding of labelled trypsin to trypsin inhibitor (trypsin (EC 3.4.21.4)): did not interfere
Molecule: bovine serum albumin (BSA): other protein tested for interference

Molecule: endo-1,4-β-D xylan xylanohydrolase [Endo-β-xylanase]
Relative activity compared to lichenase (mean ± SD, n = 12) [1]: 2.1 ± 0.1

Sensitivity: amount of enzyme required to produce a 10% decrease in maximal absorbency (biotinylated α-casein; 0.5 hour hydrolysis): 30 ng/100 ul
Sensitivity (amount of enzyme required to hydrolyse 10% of the biotinylated α-casein) (biotinylated α-casein; [5]): 30 ng/100 ul/sample
Concentration of trypsin that could be detected [2]: 0.1 to 1.0 µg/mL
Molecule: trypsin
Hydrolysis of biotin-casein by proteases (biotinylated α-casein; [5]): Yes

Molecule: β-glucan
Amount of β-glucan in the well above which enzyme activity was reduced (β-glucanase (lichenase)): exceeded 1 μg/well

Detection range for the ELSA [1]: 0.001 to 1 mU/assay
Detection range of the azo-barley glucan procedure [3]: 10 to 100 mU/assay
Activity on biotin-arabinoxylan substrate [4]: No activity
B1: endo-1,3-1,4-β-D-glucan-4-glucanohydrolase (protein, UniProt P04957 29-242, looked up)
Beta-glucanase: QTGGSFFDPFNGYNSGFWQKADGYSNGNMFNCTWRANNVSMTSLGEMRLALTSPAYNKFDCGENRSVQTYGYGLYEVRMKPAKNTGIVSSFFTYTGPTDGTPWDEIDIEFLGKDTTKVQFNYYTNGAGNHEKIVDLGFDAANAYHTYAFDWQPNSIKWYVDGQLKHTATNQIPTTPGKIMMNLWNGTGVDEWLGSYNGVNPLYAHYDWVRYTKK
notes: EC 3.2.1.73 from Bacillus subtilis, Megazyme
Relative activity compared to lichenase (mean ± SD, n = 12) [1]: 100 ± 4

B2: 1,4-D glucan glucanohydrolase (protein, UniProt P00690 16-511, looked up)
Pancreatic alpha-amylase: QYAPQTQSGRTSIVHLFEWRWVDIALECERYLGPKGFGGVQVSPPNENIVVTNPSRPWWERYQPVSYKLCTRSGNENEFRDMVTRCNNVGVRIYVDAVINHMCGSGAAAGTGTTCGSYCNPGNREFPAVPYSAWDFNDGKCKTASGGIESYNDPYQVRDCQLVGLLDLALEKDYVRSMIADYLNKLIDIGVAGFRIDASKHMWPGDIKAVLDKLHNLNTNWFPAGSRPFIFQEVIDLGGEAIQSSEYFGNGRVTEFKYGAKLGTVVRKWSGEKMSYLKNWGEGWGFMPSDRALVFVDNHDNQRGHGAGGASILTFWDARLYKVAVGFMLAHPYGFTRVMSSYRWARNFVNGQDVNDWIGPPNNNGVIKEVTINADTTCGNDWVCEHRWRQIRNMVWFRNVVDGQPFANWWANGSNQVAFGRGNRGFIVFNNDDWQLSSTLQTGLPGGTYCDVISGDKVGNSCTGIKVYVSSDGTAQFSISNSAEDPFIAIHAESKL
notes: EC 3.2.1.1 from porcine pancreas (Type 1-A)
Relative activity compared to lichenase (mean ± SD, n = 12) [1]: 4.3 ± 0.2
